According to PMC4892509, “Binding of the Fkh1 Forkhead Associated Domain to a Phosphopeptide within the Mph1 DNA Helicase Regulates Mating-Type Switching in Budding Yeast” (PLoS Genetics, 2016):
Non-standard residues stand in square brackets, D forms with d. No end group written: not given here. *: point of attachment. 5FAM = O=C1OC2(c3ccc(O)cc3Oc3cc(O)ccc32)c2ccc(C(=O)*)cc21; pT = C[C@@H](OP(=O)(O)O)[C@H](N)C(=O)O; Ahx = NCCCCCC(=O)O

What was measured:
Fkh1-6xHis = molecular target: T1, Fkh1-6xHis (Saccharomyces cerevisiae, UniProt P40466); assay: Fluorescence anisotropy binding of Mph1-derived peptides to recombinant Fkh1-6xHis
T1 construct: C-terminally His-tagged full length Fkh1 protein was expressed from a pET28b expression vector in Rosetta E. coli; made in house; host or cells: Rosetta E. coli (pET28b)
T1 sequence (P40466 1-484): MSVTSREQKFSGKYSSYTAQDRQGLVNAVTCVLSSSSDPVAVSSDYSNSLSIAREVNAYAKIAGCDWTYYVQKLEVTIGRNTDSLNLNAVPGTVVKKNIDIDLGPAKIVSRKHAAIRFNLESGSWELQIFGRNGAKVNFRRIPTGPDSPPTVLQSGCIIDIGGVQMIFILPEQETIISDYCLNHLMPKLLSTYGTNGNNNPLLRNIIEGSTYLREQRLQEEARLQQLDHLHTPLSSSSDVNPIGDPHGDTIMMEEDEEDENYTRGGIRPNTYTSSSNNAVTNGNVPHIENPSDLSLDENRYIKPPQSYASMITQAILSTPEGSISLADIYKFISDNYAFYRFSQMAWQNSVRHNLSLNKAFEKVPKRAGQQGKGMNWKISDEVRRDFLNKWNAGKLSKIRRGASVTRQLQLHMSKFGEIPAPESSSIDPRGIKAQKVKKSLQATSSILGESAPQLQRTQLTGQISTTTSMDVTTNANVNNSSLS
Method: To this end, recombinant Fkh1-6xHis was purified from E. coli and its ability to bind an 18-residue peptide representing Mph1(772–789) was assessed by fluorescence anisotropy (Fig 6).
(B) Peptide binding assay of Fkh1-6xHis and Mph1-derived peptides using fluorescence anisotropy. Binding reactions contained the indicated concentration of purified His-tagged Fkh1 and 3 nM 5-carboxyfluorescein labeled Mph1-derived peptide (5cf-aha-[sequence]) with threonines phosphorylated or unmodified, as indicated.
Peptides (constant final concentration of 3 nM) were mixed with titrations of purified Fkh1-6xHis protein in binding buffer (50 mM HEPES pH 7.0, 200 mM KCl, 10% glycerol, 5 mM BME, 1 mM EDTA, 1 mM EGTA, 5 mM MgOAc, 0.02% NP-40, protease inhibitors (Calbiotech)). Polarization at each concentration was measured in triplicates in 384-well polystyrene black microplates (Thermo Fisher Scientific #262260) by a Biotek Synergy H4 multimode plate reader (light source: xenon flash, offset from top: 7 mm, sensitivity: 60%, excitation: 485/20 nm, emission: 528/20 nm, both parallel and perpendicular, normal read speed). Fraction bound (Fb) at each concentration was calculated based on the corresponding polarization values (P): Fbc = (Pc—Pmin) / (Pmax—Pmin), where Pmin is the polarization value of the no-protein control and Pmax is the polarization value of the saturation value for that peptide. […]

Fkh1 = Fkh1 (UniProt P40466); assay: fluorescence anisotropy titration
Recombinant Fkh1-6xHis = molecular target: T2, Recombinant Fkh1-6xHis (S. cerevisiae, UniProt P40466 1-484); assay: fluorescence polarisation; fluorescence anisotropy: 3 nM 5-carboxyfluorescein labeled peptide, titration of purified Fkh1-6xHis; 50 mM HEPES pH 7.0, 200 mM KCl, 10% glycerol, 5 mM BME, 1 mM EDTA, 1 mM EGTA, 5 mM MgOAc, 0.02% NP-40; Fb = [protein] / ([protein] + Kd); conditions: both partners purified
T2 construct: Fkh1, S. cerevisiae, full length; also called His-tagged Fkh1; purified Fkh1; source: Rosetta E. coli (pET28b), purified (nickel chromatography); not shown: 6xHis, C-terminal, kept
T2 sequence (looked up): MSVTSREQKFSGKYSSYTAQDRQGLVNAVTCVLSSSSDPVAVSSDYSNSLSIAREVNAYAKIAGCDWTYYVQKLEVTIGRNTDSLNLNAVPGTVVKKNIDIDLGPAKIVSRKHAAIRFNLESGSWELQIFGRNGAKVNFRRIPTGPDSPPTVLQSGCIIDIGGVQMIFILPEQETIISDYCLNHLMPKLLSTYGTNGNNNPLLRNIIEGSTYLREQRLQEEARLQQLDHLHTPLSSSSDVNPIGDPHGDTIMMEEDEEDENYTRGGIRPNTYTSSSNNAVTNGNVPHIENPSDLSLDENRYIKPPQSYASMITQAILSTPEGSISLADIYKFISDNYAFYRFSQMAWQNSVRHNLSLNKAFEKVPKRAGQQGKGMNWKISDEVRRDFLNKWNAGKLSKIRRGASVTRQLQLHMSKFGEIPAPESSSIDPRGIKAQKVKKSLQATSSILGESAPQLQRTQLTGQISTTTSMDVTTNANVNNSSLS

Molecule: CC(C)C[C@H](NC(=O)[C@H](CO)NC(=O)[C@H](CO)NC(=O)[C@H](CO)NC(=O)[C@H](C)NC(=O)[C@H](CCC(=O)O)NC(=O)[C@H](CCC(=O)O)NC(=O)[C@@H](NC(=O)[C@H](CO)NC(=O)[C@H](CC(=O)O)NC(=O)[C@H](CC(N)=O)NC(=O)[C@H](CCC(=O)O)NC(=O)CCCCCNC(=O)c1ccc2c(c1)C(=O)OC21c2ccc(O)cc2Oc2cc(O)ccc21)[C@@H](C)O)C(=O)N[C@@H](CCC(=O)O)C(=O)N[C@H](C(=O)N[C@@H](CCC(=O)O)C(=O)N[C@@H](CC(=O)O)C(=O)N[C@@H](CCC(=O)O)C(=O)N[C@@H](CCC(=O)O)C(=O)O)[C@@H](C)O [Non-phosphorylated]
- fold reduced affinity for Fkh1 (non-phosphorylated vs peptide phosphorylated on both T776 and T785) (Fkh1-6xHis; relative to peptide phosphorylated on both T776 and T785): > 100 -fold

Molecule: CC(C)C[C@H](NC(=O)[C@H](CO)NC(=O)[C@H](CO)NC(=O)[C@H](CO)NC(=O)[C@H](C)NC(=O)[C@H](CCC(=O)O)NC(=O)[C@H](CCC(=O)O)NC(=O)[C@@H](NC(=O)[C@H](CO)NC(=O)[C@H](CC(=O)O)NC(=O)[C@H](CC(N)=O)NC(=O)[C@H](CCC(=O)O)NC(=O)CCCCCNC(=O)c1ccc2c(c1)C(=O)OC21c2ccc(O)cc2Oc2cc(O)ccc21)[C@@H](C)OP(=O)(O)O)C(=O)N[C@@H](CCC(=O)O)C(=O)N[C@H](C(=O)N[C@@H](CCC(=O)O)C(=O)N[C@@H](CC(=O)O)C(=O)N[C@@H](CCC(=O)O)C(=O)N[C@@H](CCC(=O)O)C(=O)O)[C@@H](C)OP(=O)(O)O [pT776 pT785]
- binding to purified Fkh1, result in words (Fkh1-6xHis; 3 nM labeled peptide, pH 7.0): bound purified Fkh1 efficiently

Molecule: Mph1 772-789 (from UniProt P40562) pT776 pT785 peptide
- binding against the reference (Fkh1; reference: pT776 peptide, sites T785): stronger
- binding against the reference (Fkh1; reference: pT785 peptide, sites T776): stronger

Molecule: Mph1 772-789 (from UniProt P40562) pT776 peptide
- binding against the reference (Fkh1; reference: unphosphorylated peptide, sites T776): stronger

Molecule: Mph1 772-789 (from UniProt P40562) pT785 peptide
- binding against the reference (Fkh1; reference: unphosphorylated peptide, sites T785): stronger

B1: Mph1(772–789) peptide, non-phosphorylated (peptide)
peptide: {5FAM-Ahx}-ENDSTEEASSSLETEDEE
notes: Mph1, S. cerevisiae, 18-residue peptide representing Mph1(772–789); source: synthetic peptide
- Kd (Recombinant Fkh1-6xHis): 271 µM

B2: Mph1(772–789) peptide phosphorylated on both T776 and T785 (peptide)
peptide: {5FAM-Ahx}-ENDS[pT]EEASSSLE[pT]EDEE
notes: as for B1
- Kd (Recombinant Fkh1-6xHis): 2.2 µM
